{"source": "patent US20040253233A1", "about": "(CENTRO DE INMUNOLOGIA MOLECULAR CIM, published 2004)", "binders": {"B1": {"name": "chimeric Mab 1E10 (antibody, V domains shown)", "VH": "QVQLQQSGAELVKPGASVKLSCKASGYTFTSYDINWVRQRPEQGLEWIGWIFPGDGSTKYNEKFKGKATLTTDKSSSTAYMQLSRLTSEDSAVYFCAREDYYDNSYYFDYWGQGTTLTV", "VL": "DIQMTQTTSSLSASLGDRVTISCRASQDISNYLNWYQQKPDGTVKLLIYYTSRLHSGVPSRFSGSGSGTDYSLTISNLEQEDIATYFCQQGNTLPWTFGGGTKLESK", "notes": "FR4 segments are printed short, so the variable domains may lack their last residues; also called Mab 1E10 chimeric; recombinant MAb 1E10"}}, "target": "T1, murine monoclonal antibody P3", "T1 construct": "Murine IgM with kappa light chain from hybridoma ECACC 94113026, coated on the ELISA plate; FR4 segments are printed short; also called Mab P3; MAb P3", "T1 sequence (VH, as listed by the source, chain 1 of 2)": "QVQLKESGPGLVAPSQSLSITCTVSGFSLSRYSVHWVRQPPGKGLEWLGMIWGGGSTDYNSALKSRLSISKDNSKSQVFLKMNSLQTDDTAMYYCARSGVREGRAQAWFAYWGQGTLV", "T1 sequence (V domain, as listed by the source, chain 2 of 2)": "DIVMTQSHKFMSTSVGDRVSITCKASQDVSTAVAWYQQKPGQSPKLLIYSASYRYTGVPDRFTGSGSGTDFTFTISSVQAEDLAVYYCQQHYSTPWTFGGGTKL", "test": "ELISA, plate coated with Mab P3, purified chimeric 1E10 detected with goat anti-human antibody-alkaline phosphatase, absorbance at 405 nm", "protocol": "For recombinant MAb 1 E10, Microtiter plates were coated with Mab P3. After washing with PBST (saline phosphate buffered solution containing 0.05% Tween 20), unspecific binding was blockade with bovine sera albumin (BSA) 1% in PBST, incubated for one hour at 37° C.\nThe wells were washed and incubated for 1 hour at 37° C. with purified recombinant Mab 1E10. The wells were washed with PBST and a goat anti-human antibody conjugated with alkaline phosphatase was added and incubated at 37° C. for one hour. Finally, the wells were washed with PBST and the substrate buffer containing p-nitrophenylphosphate was added."}
{"binder": "B1", "values": [{"measurement": "binding result", "value": "binds"}]}
